Substitutions are numbered along the chain they refer to.

T1: DnaD L22A (Bacillus subtilis 168CA, UniProt P39787 1-232, L22A)
T1 sequence: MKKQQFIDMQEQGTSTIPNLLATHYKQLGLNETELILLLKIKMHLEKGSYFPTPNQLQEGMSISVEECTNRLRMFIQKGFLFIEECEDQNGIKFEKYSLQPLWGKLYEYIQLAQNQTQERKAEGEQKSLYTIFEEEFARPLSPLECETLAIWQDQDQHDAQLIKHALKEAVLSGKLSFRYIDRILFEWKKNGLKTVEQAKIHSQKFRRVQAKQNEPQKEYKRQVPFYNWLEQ

T2: DnaD1-224 (Bacillus subtilis 168CA, UniProt P39787 1-224)
T2 sequence: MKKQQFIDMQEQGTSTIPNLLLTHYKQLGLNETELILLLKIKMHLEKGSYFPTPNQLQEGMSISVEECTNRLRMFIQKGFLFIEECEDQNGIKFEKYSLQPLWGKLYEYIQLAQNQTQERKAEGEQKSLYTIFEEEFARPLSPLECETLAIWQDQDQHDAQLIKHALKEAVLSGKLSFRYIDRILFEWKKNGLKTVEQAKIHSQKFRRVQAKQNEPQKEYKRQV

T3: DnaD F6A (Bacillus subtilis 168CA, UniProt P39787 1-232, F6A)
T3 sequence: T1 sequence with F6A, A22L

T4: DnaD1-205 (Bacillus subtilis 168CA, UniProt P39787 1-205)
T4 sequence: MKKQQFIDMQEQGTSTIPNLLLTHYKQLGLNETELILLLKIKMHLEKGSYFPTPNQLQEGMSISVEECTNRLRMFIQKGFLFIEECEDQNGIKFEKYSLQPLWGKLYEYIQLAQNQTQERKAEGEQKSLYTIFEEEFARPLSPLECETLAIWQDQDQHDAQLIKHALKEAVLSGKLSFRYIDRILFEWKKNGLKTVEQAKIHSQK

T5: DnaD (Bacillus subtilis 168CA, UniProt P39787 1-232)
T5 sequence: T1 sequence with A22L

B1: DnaD^1-205 (truncation lacking the entire C-terminal tail) (domain or fragment, Bacillus subtilis, UniProt P39787 1-205, looked up)
chain: T4 sequence
notes: DnaD, Bacillus subtilis 168CA, residues 1-205; variant lacking the entire DnaD^CTT; made from pSF17; source: E. coli BL21(DE3)-pLysS, purified (HisTrap, His14-SUMO tag digested, second HisTrap flow-through)
B2: DnaD^1-224 (truncation lacking the DnaB interaction region, the last eight residues) (domain or fragment, Bacillus subtilis, UniProt P39787 1-224, looked up)
chain: T2 sequence
notes: DnaD, Bacillus subtilis 168CA, residues 1-224; variant lacking the last eight amino acid residues of the DnaD^CTT; made from pSF17; source: E. coli BL21(DE3)-pLysS, purified (HisTrap, His14-SUMO tag digested, second HisTrap flow-through)

The first data set concerns the molecule itself. In words: SEC-MALS; 20°C; 40 mM Tris-HCl pH 8, 500 mM NaCl, 1 mM EDTA, 20 mM imidazole, 2.5% v/v glycerol; 100 μl injected.
Settings: not given
(SEC sorts molecules by how far they enter the pores of the column.)
For the molecule B1, the “stoichiometry N” value was 4.

Another data set deals with the molecule itself. In words: SEC; Superdex 200 Increase 10/300GL, 4°C; 40 mM Tris-HCl pH 8, 500 mM NaCl, 1 mM EDTA, 20 mM imidazole; 500 μl samples.
Settings: not given
B2: the “stoichiometry N” value was 4.

The target of a further data set is T1, DnaD L22A. In words: fluorescence polarisation; FP: 10 mM HEPES-KOH pH 7.5, 1 mM Mg acetate, 100 mM K glutamate, 20 C, 1.875 nM DNA, DnaD up to 500 nM, 10 min; Bpa crosslinking conditions not in material. The settings on record: protein: recombinant; tags: His14-SUMO tag removed; label: fluorescein 5'.
CTCCTCCCCCCCCTCCTC (ssDNA) [polyC with two TnnT (oCW1128)]: the binding result was “no binding”.

A further data set has as its target T2, DnaD1-224. The description is as above. The conditions noted are these: protein: recombinant; tags: His14-SUMO tag removed; chain copies: 4; label: fluorescein 5'.
As to TTTTTTTTTTTTTTTTTTTTTTTTTTTTTTTTTTTTTTTT (ssDNA) [polyT(40) (oCW837)], the binding result is recorded as “binds”.

The target of a further data set is T3, DnaD F6A. Described as above. The settings on record: protein: recombinant; tags: His14-SUMO tag removed; chain copies: 2; label: fluorescein 5'.
As to CTCCTCCCCCCCCTCCTC (ssDNA) [polyC with two TnnT (oCW1128)], the binding result was “no binding”.

A further data set has as its target T4, DnaD1-205. Described as above. The settings on record: protein: recombinant; tags: His14-SUMO tag removed; chain copies: 4; label: fluorescein 5'.
Consider TTTTTTTTTTTTTTTTTTTTTTTTTTTTTTTTTTTTTTTT (ssDNA) [polyT(40) (oCW837)], for which the binding result is given as “no binding”.

The target in a further data set is T5, DnaD. The data set is described as above. The settings on record: protein: recombinant; tags: His14-SUMO tag removed; chain copies: 4; label: fluorescein 5'.
As to CTCCTCCCCCTCCTCCCC (ssDNA) [TnnT spacing (oCW1493)], the binding result is “binds”.

With CTCCTCCCCCCCTCCTCC (ssDNA) [TnnT spacing (oCW1491)], the binding result is reported as “binds”.

For TTTTTTTTTT (ssDNA) [polyT(10) (oCW834)], the binding result was “no binding”.

In the case of CTCCTCCCCCCTCCTCCC (ssDNA) [TnnT spacing (oCW1492)], the binding result was “binds”.

For the molecule CTCCTCCTCCTCCCCCCC (ssDNA) [TnnT spacing (oCW1496)], the binding result was “binds”.

As for CTCCTCCCCCCCCTCCTC (ssDNA) [polyC with two TnnT (oCW1128)], the binding result is listed as “binds”.

Take CTACTATTACTTCTACTA (ssDNA) [DRE (oCW1039)]: the binding result is “binds”.

As to GTATTACCGCCTTTGAGTGA (ssDNA) [ssDNA 2 (oCW1124)], the binding result is “binds”.

With CTCCTCCCCTCCTCCCCC (ssDNA) [TnnT spacing (oCW1494)], the binding result was “binds”.

With CTCCTTCCTCCCCCCCCC (ssDNA) [TnnT juxtaposed (oCW1498)], the binding result is “binds”.

As for TTTTTTTTTTTTTTTTTTTTTTTTTTTTTTTTTTTTTTTT (ssDNA) [polyT(40) (oCW837)], the binding result is given as “binds”.

As to CTCCTCCCTCCTCCCCCC (ssDNA) [TnnT spacing (oCW1495)], the binding result is reported as “binds”.

For CTCCTCTCCTCCCCCCCC (ssDNA) [TnnT spacing (oCW1497)], the binding result was “binds”.

On to TTTTTTTTTTTTTTT (ssDNA) [polyT(15) (oCW1029)], for which the binding result is recorded as “binds”.

Turning to TCACTCAAAGGCGGTAATAC (ssDNA) [ssDNA 1 (oCW1036)], the binding result is listed as “binds”.

Broadly, the stoichiometry N is the number of molecules, sites or subunits per partner or assembly.

Source of the values: paper PMC10201434, “The DNA replication initiation protein DnaD recognises a specific strand of the Bacillus subtilis chromosome origin” (Nucleic Acids Research, 2021).
